± gives the uncertainty stated by the source.
B1: Chromodomain-helicase-DNA-binding protein 4, residues 365 to 417; numbered along this chain, Q14839 (parent)
chain: YETDHQDYCEVCQQGGEIILCDTCPRAYHMVCLDPDMEKAPEGKWSCPHCEKE

Variants of: B1
Assay: abundance fitness (aPCA) (normalised: wild type 0, dead -1); higher = more abundant; growth selection in yeast, the domain comes from the species named
Conditions: Homo sapiens

Abundance fitness: each site, then its substitutions
K39: L -0.132 ± 0.1; G 0.008 ± 0.096
L33: K -0.103 ± 0.14; C 0.026 ± 0.14; S 0.141 ± 0.1; M -0.084 ± 0.16; A 0.123 ± 0.12; Q -0.114 ± 0.19; D -1.04 ± 0.24; N -0.547 ± 0.27; F 0.022 ± 0.18; P -0.404 ± 0.17; E -0.496 ± 0.12; G -0.195 ± 0.095; T 0.162 ± 0.12; Y -0.025 ± 0.16; W 0.024 ± 0.11
V31: W -0.236 ± 0.14; A 0.121 ± 0.11; K 0.027 ± 0.17; R -0.032 ± 0.1; N 0.113 ± 0.21; G -0.017 ± 0.091; P 0 ± 0.14; M -0.417 ± 0.16; Q -0.1 ± 0.14; H 0.104 ± 0.18; C 0.138 ± 0.18; E -0.089 ± 0.13; F -0.031 ± 0.16; L 0.258 ± 0.098; D -0.005 ± 0.14; S 0.044 ± 0.11; I -0.234 ± 0.15; T -0.431 ± 0.17; Y 0.112 ± 0.16
E38: W -0.281 ± 0.14; I -0.106 ± 0.18; M -0.784 ± 0.21; D -0.074 ± 0.15; T -0.657 ± 0.22; S -0.266 ± 0.11; Q -0.19 ± 0.2; H -0.079 ± 0.26; Y -0.093 ± 0.25; F 0.142 ± 0.18; N -0.183 ± 0.26; K -0.244 ± 0.18; G -0.056 ± 0.082; V -0.063 ± 0.11; R -0.029 ± 0.1; L -0.197 ± 0.11; P -0.143 ± 0.13; C -0.028 ± 0.11; A -0.261 ± 0.11
K44: A -0.017 ± 0.15; Q 0.309 ± 0.13; H -0.3 ± 0.21; E 0.079 ± 0.14; I -0.427 ± 0.3; V -0.109 ± 0.11; G 0.164 ± 0.095; Y -0.31 ± 0.18; P 0.062 ± 0.14; L -0.145 ± 0.1; W 0.098 ± 0.12; S 0.102 ± 0.11; N -0.373 ± 0.29; M -0.066 ± 0.12; F -0.028 ± 0.16; C -0.152 ± 0.14; T 0.218 ± 0.15; R 0.05 ± 0.097
H29: K -0.943 ± 0.19; P -1.1 ± 0.21; G -0.698 ± 0.093; C 0.028 ± 0.16; Q -0.746 ± 0.14; T -0.79 ± 0.15; N -0.491 ± 0.26; M -0.686 ± 0.16; W -0.999 ± 0.12; D -0.306 ± 0.19; S -0.477 ± 0.11; Y -0.841 ± 0.16; E -0.951 ± 0.15; V -1.15 ± 0.11; A -0.967 ± 0.13; L -1.04 ± 0.14; F -1.05 ± 0.29; I -1.17 ± 0.24
A40: Y -0.462 ± 0.17; N -0.351 ± 0.27; E -0.102 ± 0.16; K -0.043 ± 0.2; F 0.015 ± 0.18; W -0.135 ± 0.13; R -0.178 ± 0.12; T -0.151 ± 0.14; G -0.157 ± 0.1; Q -0.208 ± 0.16; I 0.464 ± 0.2; M 0.043 ± 0.14; L 0.095 ± 0.1; P -0.209 ± 0.12; S -0.126 ± 0.094; C -0.035 ± 0.16; V -0.093 ± 0.094; D 0.016 ± 0.17; H 0.33 ± 0.2
Y28: V -0.05 ± 0.096; Q -0.395 ± 0.14; T -0.284 ± 0.14; R -0.254 ± 0.094; W 0.086 ± 0.12; S -0.271 ± 0.098
C32: H -0.072 ± 0.21; D -0.486 ± 0.21; L -0.776 ± 0.12; Y -1 ± 0.21; I -0.916 ± 0.24; P -0.794 ± 0.19; M -0.687 ± 0.15; G -0.967 ± 0.13; Q -1.08 ± 0.23; K -0.817 ± 0.22; V -0.63 ± 0.12; E -0.504 ± 0.17; F -1.02 ± 0.25; N -1.04 ± 0.39; S -0.952 ± 0.14; W -0.936 ± 0.13; A -0.737 ± 0.14; T -0.94 ± 0.17
P35: H -0.001 ± 0.33; V -0.04 ± 0.098; M -0.054 ± 0.16; R 0.029 ± 0.1; Q -0.284 ± 0.22; T 0.054 ± 0.14; L -0.191 ± 0.1; E -0.345 ± 0.15; G 0.038 ± 0.089; S 0.125 ± 0.11; K -0.374 ± 0.18; C -0.1 ± 0.15; A -0.016 ± 0.097; W -0.236 ± 0.13; N -0.023 ± 0.26; Y 0.272 ± 0.26
E42: F -0.315 ± 0.22; H -0.394 ± 0.21; M -0.069 ± 0.15; D -0.182 ± 0.16; S -0.129 ± 0.13; C -0.026 ± 0.21; L -0.087 ± 0.11; Q -0.012 ± 0.17; P 0.052 ± 0.18; K 0.026 ± 0.18; I -0.261 ± 0.23; Y -0.17 ± 0.27; G -0.114 ± 0.11; W -0.49 ± 0.14; T 0.066 ± 0.17; A -0.178 ± 0.13; V 0.066 ± 0.11
